According to patent US20180230200A1 (CITY OF HOPE, published 2018):

T1: UL128 expressed from MVA in BHK-21 cells (human cytomegalovirus, UniProt P16837 28-171)
T1 construct: whole, on cells
T1 sequence: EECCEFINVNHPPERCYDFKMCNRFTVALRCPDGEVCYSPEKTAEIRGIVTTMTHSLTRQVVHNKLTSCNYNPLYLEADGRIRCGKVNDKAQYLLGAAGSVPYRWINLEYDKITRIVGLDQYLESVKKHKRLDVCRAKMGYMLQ

B1: 12E2 (antibody, V domains shown)
VH: EVKLVESGGGLVQPGGSLKLSCATSGFTFSDYYMFWVRQTPEKKLEWVAYISNGGGSTYYPDTVKGRFTISRDNDKNTLYLQMSRLKSDDTALYYCVRPKRDFQYLYAMDYWGQGTSVTVSS
VL: DIVLTQSPASLAVSLGQRATISCRASKSVSTSGYSYMHWYQQKPGQSPKLLIYLASNLESGVPARFSGSGSGTDFTLNIHPVEDEDAATYYCQHSRELPWTFGGGTKLEIK
notes: also called NAb 12E2
B2: 4A3 (antibody, V domains shown)
VH: QVQLQQPGPELVRPGASVKLSCKASGYTFTIYWMNWVKQRPGQGLEWIGMIDPSDSETHYNQMFKDKATLTVDKSSSTAYMQLSSLTSEDSAVYYCASSGTGAYWGQGTLLTVSA
VL: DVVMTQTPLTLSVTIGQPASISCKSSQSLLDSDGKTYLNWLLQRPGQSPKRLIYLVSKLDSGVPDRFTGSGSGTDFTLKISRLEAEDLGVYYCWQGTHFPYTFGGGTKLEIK
notes: also called NAb 4A3
B3: 1B2 (antibody, V domains shown)
VH: EVQLVESGGVLVKPGGSLKLSCAASGFTFSDYYMYWVRQTPEKRLEWVATISDDGNYTNYPDSVKGRFTISRDNAKNNLYLQMSSLKSEDTAMYYCARGWLLPVFAYWGQGTLVTVSA
VL: DIVLTQSPATLSVTPGDSVSLSCRASQSIGNNLHWYQQKSHESPRLLIKYTSQSISGIPSRFSGSGSGTDFTLNINSVETEDFGVYFCQQSNRWPWTFGGGTKLEIK
notes: also called NAb 1B2

What was measured:
[1] = molecular target: gH/gL/UL128/UL130/UL131A pentamer complex (PC) of HCMV strain TB40/E virus (human cytomegalovirus strain TB40/E); experiment: cell-based or functional assay
[2] = molecular target: gH/gL/UL128/UL130/UL131A pentamer complex (PC) of HCMV strain TR virus (human cytomegalovirus strain TR); experiment: cell-based or functional assay
[3] = molecular target: T1, UL128 expressed from MVA in BHK-21 cells; experiment: intracellular FC, MVA-infected BHK-21
Protocol: (§1) NAb subunit specificity was evaluated by staining BHK-21 cells infected with different MVA recombinants. One or more vectors were used to co-infect BHK-21 at an MOI of 5. […] Four hours post infection cells were fixed and permeabilized using Cytofix/Cytoperm solution (BD Biosciences). NAbs (1 mg/ml) were diluted 1:500 in perm/wash buffer (BD) and added to the cells for 1 hour at 4° C. […] Cells were washed again and resuspended in PBS/0.1% BSA. Fifteen thousand events were collected using the Gallios Flow Cytometer (Beckman Coulter, Miami, Fla., USA) and analyzed with FlowJo Software (Tree Star, Ashland, Oreg., USA). Uninfected cells and cells infected with MVA-Venus were used as controls. GFP expression was analyzed for confirming MVA infection since all the constructs contain a GFP expression cassette (36, 62).
(§2) In order to determine the antigen specificity of the vaccine-derived NAbs, intracellular flow cytometry (FC) staining of permeabilized BHK-21 cells infected with MVA expressing single subunits or combinations of two or more subunits of the PC was evaluated.

[4] = molecular target: T2, UL130 expressed from MVA in BHK-21 cells (human cytomegalovirus, UniProt P16772 1-214); experiment: intracellular FC, MVA-infected BHK-21
T2 construct: whole, on cells
Protocol: as §1, §2

[5] = molecular target: T3, UL131A expressed from MVA in BHK-21 cells (human cytomegalovirus, UniProt F5HET4 19-129); experiment: intracellular FC, MVA-infected BHK-21
T3 construct: whole, on cells
Protocol: as §1, §2

[6] = molecular target: T4, UL128/UL130 co-expressed from MVA in BHK-21 cells (human cytomegalovirus, UniProt P16837 28-171; P16772 1-214); experiment: intracellular FC, MVA-infected BHK-21
T4 construct: whole, on cells
Protocol: as §1, §2

[7] = molecular target: T5, UL128/UL131A co-expressed from MVA in BHK-21 cells (human cytomegalovirus, UniProt P16837 28-171; F5HET4 19-129); experiment: intracellular FC, MVA-infected BHK-21
T5 construct: whole, on cells
Protocol: as §1, §2

[8] = molecular target: T6, UL130/UL131A co-expressed from MVA in BHK-21 cells (human cytomegalovirus, UniProt P16772 1-214; F5HET4 19-129); experiment: intracellular FC, MVA-infected BHK-21
T6 construct: whole, on cells
Protocol: as §1, §2

[9] = molecular target: T7, gH expressed from MVA in BHK-21 cells (human cytomegalovirus, UniProt P12824 24-743); experiment: intracellular FC, MVA-infected BHK-21
T7 construct: whole, on cells
Protocol: as §1, §2

[10] = molecular target: T8, gH/gL co-expressed from MVA in BHK-21 cells (human cytomegalovirus, UniProt P12824 24-743; P16832 31-278); experiment: intracellular FC, MVA-infected BHK-21
T8 construct: whole, on cells
Protocol: as §1, §2

[11] = molecular target: T9, gH/gL/UL128 co-expressed from MVA in BHK-21 cells (human cytomegalovirus, UniProt P12824 24-743; P16832 31-278; P16837 28-171); experiment: intracellular FC, MVA-infected BHK-21
T9 construct: whole, on cells
Protocol: as §1, §2

[12] = molecular target: T10, gH/gL/UL130 co-expressed from MVA in BHK-21 cells (human cytomegalovirus, UniProt P12824 24-743; P16832 31-278; P16772 1-214); experiment: intracellular FC, MVA-infected BHK-21
T10 construct: whole, on cells
Protocol: as §1, §2

[13] = molecular target: T11, gH/gL/UL131A co-expressed from MVA in BHK-21 cells (human cytomegalovirus, UniProt P12824 24-743; P16832 31-278; F5HET4 19-129); experiment: intracellular FC, MVA-infected BHK-21
T11 construct: whole, on cells
Protocol: as §1, §2

[14] = molecular target: T12, gH/gL/UL128/UL130 co-expressed from MVA in BHK-21 cells (human cytomegalovirus, UniProt P12824 24-743; P16832 31-278; P16837 28-171; P16772 1-214); experiment: intracellular FC, MVA-infected BHK-21
T12 construct: whole, on cells
Protocol: as §1, §2

[15] = molecular target: T13, gH/gL/UL128/UL131A co-expressed from MVA in BHK-21 cells (human cytomegalovirus, UniProt P12824 24-743; P16832 31-278; P16837 28-171; F5HET4 19-129); experiment: intracellular FC, MVA-infected BHK-21
T13 construct: whole, on cells
Protocol: as §1, §2

[16] = molecular target: T14, gH/gL/UL130/UL131A co-expressed from MVA in BHK-21 cells (human cytomegalovirus, UniProt P12824 24-743; P16832 31-278; P16772 1-214; F5HET4 19-129); experiment: intracellular FC, MVA-infected BHK-21
T14 construct: whole, on cells
Protocol: as §1, §2

[17] = molecular target: T15, gH/gL/UL128/UL130/UL131A pentamer complex expressed from MVA-PC in BHK-21 cells (human cytomegalovirus, UniProt P12824 24-743; P16832 31-278; P16837 28-171; P16772 1-214; F5HET4 19-129); experiment: FC, biotinylated NAb titrated on MVA-PC-infected BHK-21 (cell surface PC)
T15 construct: whole, on cells

[18] = molecular target: T15, gH/gL/UL128/UL130/UL131A pentamer …; experiment: FC competition, MVA-PC BHK-21; unlabelled row Ab; competitor: biotinylated 1B2
[19] = molecular target: T15, gH/gL/UL128/UL130/UL131A pentamer …; experiment: FC competition, MVA-PC BHK-21; unlabelled row Ab; competitor: biotinylated 12E2
[20] = molecular target: T15, gH/gL/UL128/UL130/UL131A pentamer …; experiment: FC competition, MVA-PC BHK-21; unlabelled row Ab; competitor: biotinylated 13B5
[21] = molecular target: T15, gH/gL/UL128/UL130/UL131A pentamer …; experiment: FC competition, MVA-PC BHK-21; unlabelled row Ab; competitor: biotinylated 21F6
[22] = molecular target: T15, gH/gL/UL128/UL130/UL131A pentamer …; experiment: FC competition, MVA-PC BHK-21; unlabelled row Ab; competitor: biotinylated 18F10
[23] = molecular target: T15, gH/gL/UL128/UL130/UL131A pentamer …; experiment: FC competition, MVA-PC BHK-21; unlabelled row Ab; competitor: biotinylated 54E11

| Binder | IC50, neutralization of TB40/E infection of ARPE-19 [1] [µg/mL] | IC50, neutralization of TB40/E infection of HUVEC [1] [µg/mL] | IC50, neutralization of TB40/E infection of MRC-5 [1] [µg/mL] | IC50, neutralization of TR infection of ARPE-19 [2] [µg/mL] | IC50, neutralization of TR infection of HUVEC [2] [µg/mL] | IC50, neutralization of TR infection of MRC-5 [2] [µg/mL] | binding result [3] | binding result [4] | binding result [5] | binding result [6] | binding result [7] | binding result [8] | binding result [9] | binding result [10] | binding result [11] | binding result [12] | binding result [13] | binding result [14] | binding result [15] | binding result [16] | further results |
| --- | --- | --- | --- | --- | --- | --- | --- | --- | --- | --- | --- | --- | --- | --- | --- | --- | --- | --- | --- | --- | --- |
| B1 | 0.0037 | 0.006 | > 25 | 0.0031 | 0.0042 | > 25 | no binding | no binding | no binding | no binding | no binding | no binding | no binding | no binding | no binding | no binding | no binding | no binding | no binding | no binding | IC50, inhibition of TB40/E cell-to-cell spread in ARPE-19 [1]: 15 µg/mL; IC50, neutralization of TB40/E infection of CTB [1]: 0.0721 µg/mL; IC50, inhibition of TR cell-to-cell spread in ARPE-19 [2]: 17 µg/mL; EC50 [17]: 1.1 nM; Binding Inhibition (%) [18]: 100%; Binding Inhibition (%) [19]: 100%; Binding Inhibition (%) [20]: 0%; Binding Inhibition (%) [21]: 0%; Binding Inhibition (%) [22]: 0%; Binding Inhibition (%) [23]: 0% |
| B2 | 0.0802 | 0.0464 | > 25 | 0.0446 | 0.0102 | > 25 | no binding | no binding | no binding | no binding | no binding | no binding | no binding | no binding | no binding | no binding | no binding | no binding | no binding | no binding |  |
| B3 | 0.0006 | 0.0005 | > 25 | 0.0003 | 0.0007 | > 25 | no binding | no binding | no binding | no binding | no binding | no binding | no binding | no binding | no binding | no binding | no binding | no binding | no binding | no binding | IC50, inhibition of TB40/E cell-to-cell spread in ARPE-19 [1]: 1 µg/mL; IC50, neutralization of TB40/E infection of CTB [1]: 0.0126 µg/mL; IC50, inhibition of TR cell-to-cell spread in ARPE-19 [2]: 1.4 µg/mL; EC50 [17]: 0.32 nM; Binding Inhibition (%) [18]: 100%; Binding Inhibition (%) [19]: 100%; Binding Inhibition (%) [20]: 0%; Binding Inhibition (%) [21]: 0%; Binding Inhibition (%) [22]: 0%; Binding Inhibition (%) [23]: 0% |
